Ki data for one substance are collected here from PMC11532494 (Nature Communications, 2024).

This experiment concerns the target AcuC (acetoin-utilization protein C) of Bacillus subtilis (Bacillus subtilis) (UniProt P39067). Put plainly: dose-response enzyme inhibition (Fluor-de-Lys assay).

AcuC (acetoin-utilization protein C) of Bacillus subtilis (Bacillus subtilis), sequence (P39067 whole entry): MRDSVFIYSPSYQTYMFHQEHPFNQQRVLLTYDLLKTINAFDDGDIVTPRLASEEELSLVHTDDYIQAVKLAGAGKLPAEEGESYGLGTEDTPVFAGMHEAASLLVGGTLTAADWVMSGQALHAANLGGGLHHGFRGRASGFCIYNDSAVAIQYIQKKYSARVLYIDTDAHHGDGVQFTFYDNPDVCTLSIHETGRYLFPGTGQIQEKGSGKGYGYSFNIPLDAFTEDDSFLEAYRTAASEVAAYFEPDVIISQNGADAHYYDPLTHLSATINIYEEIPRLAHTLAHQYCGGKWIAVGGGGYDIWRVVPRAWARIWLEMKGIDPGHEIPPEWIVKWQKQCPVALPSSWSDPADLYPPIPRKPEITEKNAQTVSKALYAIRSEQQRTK

apicidin A (peptide) had a Ki below 72 nM.

A word on the Ki: it is the dissociation constant of the complex between target and ligand, obtained from inhibition or displacement.
